Laboratory results published in US20030036181A1.

Molecular target: macrophage mannose receptor on J774E murine monocyte/macrophage cells (murine) (UniProt Q61830)
Assay: cell-based or functional assay

Vmax for uptake in the J774E macrophage cell line: 0.52
Substance: Cerezyme (from UniProt P04062 40-536) (enzyme)
